The series can be described thus: soluble on expression in E. coli; label from the status in PepcDB or PDB records.
For “MSLSSEHIQNKLALLPDQPGCYLMKDRQGTIIYVGKAKILKNRVRSYFSGTHDSKTQRLVQEIVDFEYIVTSSNVEALLLEINLIKKHDPRFNIRLKDDKTYPFIKITNERHPRLIITRQVKKDKGKYFGPYPNVYAANEVKRILDRLYPLRKCSTLPNKVCLYYHLGQCLAPCVFDVEASKYKEMQDEIVTFLNGGYKTVKNDLMKKMQEAAENMEFEKAGEFRDQINAIETTMEKQKMTMNDFVDRDVFGYAIDKGWMCVQVFFIRQGKLIERDVSQFPFYNDADEDFLTFIGQFYQKANHIPPKEIYLPDDVDSEAVQAVVPDTKIIVPQRGNKKDLVKLAYKNAKIALNEKFMLLERNEERTVGAVERLGEAMGIPTPSRVEAFDNSNIHGTDPVSAMVTFLDGKPSKNDYRKYKIKTVEGPDDYATMREVIRRRYWRVLKEELPMPDLILIDGGKGQIDSAKDVLTNELGLDIPVAGLAKDDKHRTSQLLFGDPLEIVPLERNSQEFYLLQRMQDEVHRFAITFHRQLRSKTGFQSILDGIPGVGPGRKKKLLKHFGSMKKLKEASVEEIKEAGVPLNVAEEVHKHITAFNEGHHHHHH”, the “soluble on expression in E. coli” value is listed as “soluble”.

As for “GAQNEKNMYSYKKIGNKYIVSINNHTEIVKALNAFCKEKGILSGSINGIGAIGELTLRFFNPKTKAYDDKTFREQMEISNLTGNISSMNEQVYLHLHITVGRSDYSALAGHLLSAIQNGAGEFVVEDYSERISRTYNPDLGLNIYDFER”, the “soluble on expression in E. coli” value is given as “soluble”. For the sequence “MPHTGSQHTLQATPKTAQHTGAQKAPEQAIALKKEQQLKNQEGATSHRKAHTEGCHTQKTRMSADKAGLRHRQGSGEVRARTASTRVEGECSSDGVVMMFCMPARGEEEKASGEARGEDVGSSRESRQGTAHKSTCMHTEAASLQKAGEIGKVEDAKT”, the “soluble on expression in E. coli” value is “not soluble”.

Turning to “SPAPAATYERVVYKNPSEYHYMKVCLEFQDCGVGLNAAQFKQLLISAVKDLFGEVDAALPLDILTYEEKTLSAILRICSSGLVKLWSSLTLLGSYKGKKCAFRVIQVSPFLLALSGNSRELVLD”, the “soluble on expression in E. coli” value was “soluble”.

For “MIMVSGCQQQKEETPFYYGTWDEGRAPGPTDGVKSATVTFTEDEVVETEVMEGRGEVQLPFMAYKVISQSTDGSIEIQYLGPYYPLKSTLKRGENGTLIWEQNGQRKTMTRIESKTGREEKDEKSKSLEHHHHHH”, the “soluble on expression in E. coli” value is “soluble”. Consider “MSEDSELIEQVIEQPDSLIISPPSDSSSSSYNHIQPFVYLESTATTQTNHNVLLILNQKITIDLISLWKKCEIIVCADGGANSLYEYFNDNNHHHHHENLQRSDYIPDYIVGDFDSISPDVKTYYESHGSKIIRQSSQYYNDFTKSIHCIQLHYQLNHTKENWFESIDEVDGLAKLWNGLNNSSDVVVDIDITIYVLNAIGGRFDQTVQSINQLYIMNEDYPKVTVFFITTNDIIFLLKKGVNYISYKNRLMFHKDNGSSPTPTCGLLPLSNKTPIILNSYGLKYDMRNWKTEMLGQVSSSNRISGETGFIVECSDDIVMNIEIDV”, for which the “soluble on expression in E. coli” value is reported as “soluble”.

As to “MGSDKIHHHHHHMSERLRVLVVSHGHPAMSLGGAEIASHSLHKGLNTLPGVESIYLARVGHPVPRHGASALMSLRLAVDEVLFHADDYDHFFLSNGDTEAIRRDLLRFIGDLSPHVIHFHHLIGMGMEALYALREALPEAVIVVTFHEYLSLCHNHGQMVKRPSAQLCNSSSPISCHGCFPDIPVSRFLRREEFLRGMLGLADAFISPSMFLANRYVEWGIDAEKLSVIDNGIVMGEAAPVRDLPVPSARRNRFAYFGQMTPFKGIDVLVDAVSRVPEEIWGEDSCLMIFGGNLERQPAEFQERLKKLIDDAGRRVRFYGAYQNADMPRLMRSVDWVVLPSIWWENSPVVIQEALHHRRPIICSDIGGMAEKVQDGRDGLHFRAGSAQDLADRLSDVLVKPEAWDRLHATLRPPTGHAESARAHADLYRRLLKDRRSPLGAAQYEAAAQAVV”, the “soluble on expression in E. coli” value is on record as “not soluble”. On to “MKKLFNQVLVAAGVLALLAGCASEEENVIMAPLPIVKSEFTPKTLWSASVGDGVGHYFSKLAPDYAYDKVFVASRDGVVKALDPQNGKVIWTTDLEIEGSARLSGGITAAFGKLFIGSENGVVNALDAETGEPLWASAIEGEVLAAPAADNNIVIVNTSRGALIALNQEDGAQKWTISTEVPNLTLRGDSRPTAVAGGVFWGTPSGRLAAAIAERGQLIWQQPVGQPKGATEIDRLVDVDASPLVIGGTLFTVGFNGQLIAIDLRSGQPIWKRNYSSATDMATDGSRLYLVTDKDHLVAVDTRSGTELWSNTQLEHRLLTAPKMIDDYLVVGDAEGYLHWIDRNSGEFIAQQLVNDSGFAVGPLALNDGYVIVTRNGQIKKLTIQQ”, for which the “soluble on expression in E. coli” value was “not soluble”.

As for “MSNVYWPLYEVFVRGKQGLSHRHVGSLHAADERMALENARDAYTRRSEGCSIWVVKASEIVASQPEERGEFFDPAESKVYRHPTFYTIPDGIEHM”, the “soluble on expression in E. coli” value is on record as “soluble”. The entry for “MTQQGAALQNYNNELVKCIEELCQKREELCRQIQQEEDEKQRLQNEVRQLTEKLARVNENLARKIASRNEFDRTIAETEAAYLKILESSQTLLSVLKREAGNLTKATASDQKSSGGKDS” is “not soluble”; for “GPGSMDKDVDVTKLTAQALQVHIERCERLMKQPALLSRLPDGGNGIRERYSKYLAEVERRKTNGAASALTAQKDGDGEVRDEDEAQSRPAAVEGCQDEKTVGDTTTAEVTYEEEARAIGERHRHFRVPVEEIVRRTFGGSLCDSELQRIINDVPPGFFLTYEETMSMERKLMEEERAETLERLRRQRSAGGVQ” it is “soluble”; for “MSLDAMAKILLVEDSATQAVEMTMLLQAANHEVVHVANGQLGLSHLKEQAPDLVITDLEMPEINGLQLVESMRANFSHIPSILVTSHGSEELAAEALRRGAAGYVPKTRMSDLLNDTIVDVLGVIRSDASYAKLISTLKKNVFVFDLPSDPELISPLVGLLMQVSAGMELLPSIEMVRLGVAVEHSLTNAMLHGNLEIPRDKQPSHGQLAREGMINDAMKERLSQEPYKSRVTHVEATASEHAIRIVITDQGPGFDTSNVPQAGELDASSLAASADGVGQADKQGLLLIASFVDQMWFNDEGNQITLVKRCGAEGHHHHHH” it is “not soluble”. Then “MDEYSPKRHDIAQLKFLCETLYHDCLANLEESNHGWVNDPTSAVNLQLNELIEHIATFALNYKIKYNEDNKLIAQIDEYLDDTFMLFSSYGINTQDLQKWRKSGNRLFRCFVNATRANPVSLSCLEHHHHHH”, with “not soluble”; and “MATAKKITIHDVALAAGVSVSTVSLVLSGKGRISTATGERVNAAIEELGFVRNRQASALRGGQSGVIGLIVRDLSAPFYAELTAGLTEALEAQGRMVFLLHGGKDGEQLAQRFSLLLNQGVDGVVIAGAAGSSDDLRRMAEEKAIPVIFASRASYLDDVDTVRPDNMQAAQLLTEHLIRNGHQRIAWLGGQSSSLTRAERVGGYCATLLKFGLPFHSDWVLECTSSQKQAAEAITALLRHNPTISAVVCYNETIAMGAWFGLLKAGRQSGESGVDRYFEQQVSLAAFTDATPTTLDDIPVTWASTPARELGITLADRMMQKITHEETHSRNLIIPARLIAAK”, with “not soluble”.

“GPGSMSEYADCTEVAKKALEFRQQFYQLLDNPERRGDIVALYAPNTPLLCEWNGHALPDTASIAAYLGGLPRTNHKVDCVDAQPLPGNERADSFLMTVHGVVTYDDEHKREFFQRFVIRKVEERYYIMNDYYRWLSEKE”: the “soluble on expression in E. coli” value is given as “not soluble”. The entry for “MGSDKIHHHHHHMIYMRLKLSFIYDGDKFQPNKHAVQGFIYNMLRGTEYEDRHNRRGFKFFTFSDVFRDSKGYYSLLIASPDSGFINALYLSLKDRDHVYIGKDEIKLVEVKKFKLKLKRAFQTGSPVVIYKDSRKNEYFKLHEHRDLLFFLQRLKENAEKKFNSFYGDEFHLEGLIFDRVIPKVRKNGKVDVYVKVVKNGVPFPVIGTNWELLEKERIKPEERRFYRFIMDCGLGEKNSLGFGFLNPIKGVKN” is “not soluble”; for “MKKEEGLTENTGLPRKLLEKHDPWPAYVTYTSQTVKRLIEKSKTRELECMRALEERPWASRQNKPSSVIQPKRRKSSKSSGKAVFRDTLSESTLSMWGAYSVLAMAPTMIPEPTHLHADSRDCPTENYNKIIFARKPMMRMLPTVRY” it is “not soluble”; for “MPSAMNERTVAELEKLLRYIAANLKQRGREILTNYPITPPQFVALQWLLEEGDLTVGELSNKMYLACSTTTDLVDRMERNGLVARVRDEHDRRVVRIRLLEKGERIIEEVIEKRQRDLANVLESFSDEEIVVFERCLRKLHQEMTKE” it is “soluble”.

On to “MEPDIEPWDRFRDWLHCICVVTFDLELGQALEVIYPGDAILSNTEKINICYLAFPDSNSSNARDTNFHFRIRRAISDVRDCQKSFVDKSPTSLPFDTHYLYGFVHFRQCKDPTIHRGYYQKSIVLMSVLPLFSLFYSVTARIAEHFFESGEAAIEAACHHIDTWQQPHAGRTIELPLLGTLISCRLPAACDLPYEFRLDGHVELSDDDSQRLVRPDFTTSIVQHVHHLPLLWELVLLGEPLLIVAPTPSITSALVQSIVGLLSPLRIVNDFRPYFTIHDSEFREYSSKSRSPPRVILGVTNPFFIKALDHWPHILKVAEQGAEIGGDDMKKPKKTWSSSRTLDTPAGLYTQYKPFLSKDKSLAKKLLRSGNSLEVQHNILQRHFLELTHSFMIPMERYLSSLMPLKKEMSPFKGIPSTRPFSMDDFLATLETNGGPSLTCGTKGDWQGLYRRFITCSNFGGWLSMRSRDVNAQLKTHYVEALCSADFCSQTLATKHNVEIVDLVLRIRERIIECPPDTEIRRNLVRQVVKILSNVDDDLKQLLMSNCSLREILA”, for which the “soluble on expression in E. coli” value was “not soluble”. As to “MGSDKIHHHHHHMKALAIAATGMNAQQTNLEVIANNIANINTTGYKRARAEFSDLLYQVDRTQGVPNRSNASLVPEGVSIGLGVKTTAVRNVHTQGELTSTGNSFDMALTGRGWFQIEGADGGTLYTRAGAFNTNATGQLVTVDGANVIPAITVPTDAVEVIVNKTGQVFARIDGQTNLQTLGQLQIVNFANEAGLAPLGDNLFQETTASGPANAGVPGDPGFATIQQGYLEASNVDPVKEITELISAQRAYEMNSKVIQAADDMASVVSKNIR”, the “soluble on expression in E. coli” value is listed as “not soluble”. For the sequence “MGSDKIHHHHHHMQLKRMGYAQTKIRQGPNHRDGEQVTFLDVKQFFGLGHVRVGSWVSSEESLIAANMVFDALADLALVLGLPPKVMGLRERLNLAFGHGGQQGVMAHYSPSERTLALAKHAGAGAVAHEFWHAFDHHLSDTAMDIGRSQKARFASELWLNDVPLLCHPLNDRLEALFQSVLLSGDGEHPSDYVRRAIQLDKTYGRLYFSHPSELMARAFEAAIESEGDFEQVDTDSGEIHLLPLINPYLVTGTLEDIKTENKGELLPKFGSWGAMPQGAFPTPIHRQAIMKAMAGYFRPLGRALAKTLS”, the “soluble on expression in E. coli” value is reported as “not soluble”. The entry for “AAKGTAETKQEKSFVDWLLGKITKEDQFYETDPILRGGDVKSSGSTSGKKGGTTSGKKGTVSIPSKKKNGNGGVFGGLFAKKD” is “soluble”; for “MKLIKNGKVLQNGELQQADILIDGKVIKQIAPAIEPSNGVDIIDAKGHFVSPGFVDVHVHLREPGGEYKETIETGTKAAARGGFTTVCPMPNTRPVPDSVEHFEALQKLIDDNAQVRVLPYASITTRQLGKELVDFPALVKEGAFAFTDDGVGVQTASMMYEGMIEAAKVNKAIVAHCEDNSLIYGGAMHEGKRSKELGIPGIPNICESVQIARDVLLAEAAGCHYHVCHVSTKESVRVIRDAKRAGIHVTAEVTPHHLLLTEDDIPGNNAIYKMNPPLRSTEDREALLEGLLDGTIDCIATDHAPHARDEKAQPMEKAPFGIVGSETAFPLLYTHFVKNGDWTLQQLVDYLTIKPCETFNLEYGTLKENGYADLTIIDLDSEQEIKGEDFLSKADNTPFIGYKVYGNPILTMVEGEVKFEGDK” it is “not soluble”.

(Values after the DeepSol protein solubility set.)
